Where two headings read alike, the source gives them in different places.

The target of series [1] is T1, hOGG1 K249Q (catalytically inactive) (Homo sapiens, UniProt O15527 1-345, K249Q). As to the kind of experiment: EMSA.
Series [2] deals with T1, hOGG1 K249Q (catalytically inactive). The experiment in a line: EMSA. This is another data set of the same source. (In general: A gel shift assay detects complexes by their altered migration in electrophoresis.)

T1 sequence (O15527 whole entry K249Q): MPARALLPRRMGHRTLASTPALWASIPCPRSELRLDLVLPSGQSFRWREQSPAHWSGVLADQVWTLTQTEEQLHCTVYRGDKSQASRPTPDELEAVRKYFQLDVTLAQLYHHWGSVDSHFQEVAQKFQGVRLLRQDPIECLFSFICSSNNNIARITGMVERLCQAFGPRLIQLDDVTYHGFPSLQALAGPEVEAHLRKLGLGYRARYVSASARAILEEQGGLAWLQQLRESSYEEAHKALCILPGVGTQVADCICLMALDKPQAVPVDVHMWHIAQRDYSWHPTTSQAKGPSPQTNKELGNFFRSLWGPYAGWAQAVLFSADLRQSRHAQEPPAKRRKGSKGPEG

B1: dsDNA (145 bp 601, unmodified) (dsDNA)
DNA 1: ATCGATGTATATATCTGACACGTGCCTGGAGACTAGGGAGTAATCCCCTTGGCGGTTAAAACGCGGGGGACAGCGCGTACGTGCGTTTGAGCGGTGCTAGAGCTGTCTACGACCAATTGAGCGGCCTCGGCACCGGGATTCTGAT
DNA 2: ATCAGAATCCCGGTGCCGAGGCCGCTCAATTGGTCGTAGACAGCTCTAGCACCGCTCAAACGCACGTACGCGCTGTCCCCCGCGTTTTAACCGCCAAGGGGATTACTCCCTAGTCTCCAGGCACGTGTCAGATATATACATCGAT
By Kd is commonly meant the concentration at which binding is half-saturated. Low readings indicate tighter binding, high ones weaker binding. B1 displayed a Kd in series [1] of 1.31 ± 0.2 µM.

B2: dsDNA-8-oxodGuo-89 (dsDNA)
DNA 1: B1 DNA 1
DNA 2: B1 DNA 2
modifications: 8-oxodGuo at G89 of strand 1
B2 showed a Kd in series [2] of 0.3 ± 0.01 µM.

B3: dsDNA-8-oxodGuo-137 (dsDNA)
DNA 1: B1 DNA 1
DNA 2: B1 DNA 2
modifications: 8-oxodGuo at G137 of strand 1
B3 gave a Kd in series [2] of 0.42 ± 0.02 µM.

B4: dsDNA-8-oxodGuo-73 (dsDNA)
DNA 1: B1 DNA 1
DNA 2: B1 DNA 2
modifications: 8-oxodGuo at G73 of strand 1
Regarding B4, in series [2], the Kd came out at 0.24 ± 0.01 µM.

(Values after paper PMC11526172.)
